# Data as given in article PMC10585736, “Analyses of POL30 (PCNA) reveal positional effects in transient repression or bi-modal active/silent state at the sub-telomeres of S. cerevisiae” (Epigenetics & Chromatin, 2023).
# Changes are numbered by the printed parent chain.
# B1: pol30-6 mutant Pol30p of the pol30-6 strain (natural protein, S. cerevisiae, UniProt P15873 1-258, looked up)
# chain: MLEAKFEEASLFKRIIDGFKDCVQLVNFQCKEDGIIAQAVAASRVLLVSLEIGVEAFQEYRCDHPVTLGMDLTSLSKILRCGNNTDTLTLIADNTPDSIILLFEDTKKDRIAEYSLKLMDIDADFLKIEELQYDSTLSLPSSEFSKIVRDLSQLSDSINIMITKETIKFVADGDIGSGSVIIKPFVDMEHPETSIKLEMDQPVDLTFGAKYLLDIIKGSSLSDRVGIRLSSEAPALFQFDLKSGFLQFFLAPKFNDEE
# notes: Pol30p (PCNA), S. cerevisiae, double alanine substitutions at Asp 41 and Asp 42; detected with α-PCNA; also called Pol30-6p; source: expressed in the pol30-6 mutant yeast strain, in lysate
# B2: pol30-8 mutant Pol30p of the pol30-8 strain (natural protein, S. cerevisiae, UniProt P15873 1-258, looked up)
# chain: B1 chain with A41D, A42D, R61A, D63A
# notes: Pol30p (PCNA), S. cerevisiae, double alanine substitutions at Arg 61 and Asp 63; detected with α-PCNA; also called Pol30-8p; source: expressed in the pol30-8 mutant yeast strain, in lysate
# Molecular target: T1, Rrm3p-Myc (S. cerevisiae, UniProt P38766 1-723)
# T1 construct: Rrm3p DNA helicase, S. cerevisiae; source: expressed from a low copy plasmid in the POL30-0 and mutant pol30 yeast strains, in lysate
# T1 sequence (looked up): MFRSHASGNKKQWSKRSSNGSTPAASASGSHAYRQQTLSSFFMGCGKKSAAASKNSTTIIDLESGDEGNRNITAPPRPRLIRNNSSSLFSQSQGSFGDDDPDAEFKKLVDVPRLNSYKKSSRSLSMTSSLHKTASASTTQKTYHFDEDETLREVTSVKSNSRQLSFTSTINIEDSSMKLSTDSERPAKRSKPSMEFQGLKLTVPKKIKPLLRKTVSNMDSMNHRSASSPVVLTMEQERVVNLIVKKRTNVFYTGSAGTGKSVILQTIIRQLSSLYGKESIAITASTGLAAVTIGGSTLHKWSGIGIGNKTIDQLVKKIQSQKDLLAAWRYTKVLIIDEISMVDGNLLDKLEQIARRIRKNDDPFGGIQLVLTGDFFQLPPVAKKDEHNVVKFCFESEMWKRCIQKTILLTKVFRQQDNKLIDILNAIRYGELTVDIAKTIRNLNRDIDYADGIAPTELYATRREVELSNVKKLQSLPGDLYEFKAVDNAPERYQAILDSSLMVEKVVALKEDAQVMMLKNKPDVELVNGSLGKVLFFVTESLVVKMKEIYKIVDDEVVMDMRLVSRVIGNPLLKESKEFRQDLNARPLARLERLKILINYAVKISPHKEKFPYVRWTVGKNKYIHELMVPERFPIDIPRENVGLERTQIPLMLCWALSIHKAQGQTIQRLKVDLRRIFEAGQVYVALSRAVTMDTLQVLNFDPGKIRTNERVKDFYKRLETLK
# Assay: co-IP; Cac1p-FLAG and Rrm3p-Myc from low copy plasmids in the POL30-0 and mutant pol30 strains; α-FLAG or α-Myc precipitation from lysate in IP buffer (150 mM NaCl, 50 mM Tris pH 7.5, 2 mM EDTA), washes with 0.2% Triton X100 + 0.01% SDS, elution with FLAG or Myc peptide, blot with α-PCNA
# Conditions: partners not purified
row,Binder,fold reduction of co-precipitated Pol30p against wild-type Pol30p [fold]
1,B1,5
2,B2,< 2
